In US20250092426, “CAS ENDONUCLEASES AND RELATED METHODS” (Flagship Pioneering Innovations VII, LLC, published 2025):

Target: T1, CasEnd-7 (synthetic construct)
T1 chain: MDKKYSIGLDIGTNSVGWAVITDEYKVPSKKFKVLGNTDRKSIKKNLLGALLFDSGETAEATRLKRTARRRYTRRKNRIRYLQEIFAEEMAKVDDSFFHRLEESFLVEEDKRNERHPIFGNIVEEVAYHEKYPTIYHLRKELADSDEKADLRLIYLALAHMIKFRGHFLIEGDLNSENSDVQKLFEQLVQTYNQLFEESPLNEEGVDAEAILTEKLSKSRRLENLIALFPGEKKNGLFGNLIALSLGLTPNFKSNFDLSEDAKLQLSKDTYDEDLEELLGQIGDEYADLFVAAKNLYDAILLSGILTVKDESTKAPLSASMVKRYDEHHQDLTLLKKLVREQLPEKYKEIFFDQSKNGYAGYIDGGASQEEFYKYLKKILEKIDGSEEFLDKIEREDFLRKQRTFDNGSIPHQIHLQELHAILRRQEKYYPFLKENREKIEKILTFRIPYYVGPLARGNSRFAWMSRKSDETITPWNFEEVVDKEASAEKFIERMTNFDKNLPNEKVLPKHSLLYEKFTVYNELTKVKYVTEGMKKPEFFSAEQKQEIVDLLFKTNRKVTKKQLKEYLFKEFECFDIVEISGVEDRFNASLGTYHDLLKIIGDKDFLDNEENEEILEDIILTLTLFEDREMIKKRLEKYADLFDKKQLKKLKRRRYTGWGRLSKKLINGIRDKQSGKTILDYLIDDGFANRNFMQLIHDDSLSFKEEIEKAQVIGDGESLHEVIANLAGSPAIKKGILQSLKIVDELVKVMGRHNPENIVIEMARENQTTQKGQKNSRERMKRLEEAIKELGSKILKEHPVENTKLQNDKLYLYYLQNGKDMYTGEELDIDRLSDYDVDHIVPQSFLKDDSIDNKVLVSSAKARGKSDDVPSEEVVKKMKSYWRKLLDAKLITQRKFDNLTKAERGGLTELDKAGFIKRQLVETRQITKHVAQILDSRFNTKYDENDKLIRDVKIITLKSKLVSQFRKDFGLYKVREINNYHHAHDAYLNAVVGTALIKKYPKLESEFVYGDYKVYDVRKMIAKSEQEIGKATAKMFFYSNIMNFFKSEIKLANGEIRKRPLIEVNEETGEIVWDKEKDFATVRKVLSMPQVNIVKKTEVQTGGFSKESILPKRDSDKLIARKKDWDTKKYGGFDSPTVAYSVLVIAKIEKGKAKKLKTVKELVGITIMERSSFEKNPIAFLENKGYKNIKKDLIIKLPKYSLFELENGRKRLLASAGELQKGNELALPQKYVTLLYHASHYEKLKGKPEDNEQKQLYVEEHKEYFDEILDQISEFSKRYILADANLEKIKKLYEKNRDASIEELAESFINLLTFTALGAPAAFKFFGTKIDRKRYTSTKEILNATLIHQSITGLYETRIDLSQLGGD
Test: cell_activity; +++; HEK293T; PAM not stated
How it was run: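 BFP-to-GFP conversion via reverse transcriptase fusion with each Cas endonuclease plus template RNA: 200 ng of each plasmid nucleofected into 250,000 BFP-expressing HEK293T cells (program DS-150). Percent GFP+ cells by flow cytometry at day 4 measured editing.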

B1: BFP-to-GFP template RNA ; BFP reporter protospacer (ssRNA ; dsDNA)
RNA: GCCGAAGCACUGCACGCCGUGUUUUAGAGCUAGAAAUAGCAAGUUAAAAUAAGGCUAGUCCGUUAUCAACUUGAAAAAGUGGCACCGAGUCGGUGCACCCUGACGUACGGCGUGCAGUGCUU
DNA 1: GCCGAAGCACTGCACGCCGT
DNA 2: ACGGCGTGCAGTGCTTCGGC
activity: ≥ 100 % of reference
